# In patent publication US20260231968A1, “AN ECO-FRIENDLY, SUSTAINABLE FOOD PRESERVATIVE” (priority 2023, published 2026):
# B1: psoriasin: Recombinant human psoriasin (S100a7) containing a histidine tag, amino acid sequence SEQ ID NO: 11, expression vector pET-28a (protein, listed as Homo sapiens)
# chain: MSNTQAERSIIGMIDMFHKYTRRDDKIEKPSLLTMMKENFPNFLSACDKKGTNYLADVFEKKDKNEDKKIDFSEFLSLLGDIATDYHKQSHGAAPCSGGSQ
# Key:
# [1] = system: microbial sample isolated from soy protein; test: Growth of microbes isolated from soy protein in LB or RPMI; type: cell-based
# Method: Psoriasin was applied to a microbial sample isolated from soy protein that was incubated in RPMI or LB medium, with no addition of external antibiotics. Liquid RPMI 1640 (5 ml) medium w/o Pen/strep antibiotics were inoculated with a colony that grew on an LB agarose plate from Example 8. The inoculated medium was incubated in a 37° C. shaker incubator overnight. Only the medium without antibiotics became turbid as a result of the endogenic bacterial growth. The isolated bacteria were used in dose-response experiments in RPMI 1640 and LB. Microbial growth was monitored in a 96-well plate by reading the absorbance at 600 nm every 10 minutes while adjusting the temperature to 37° C. In the rich LB medium, psoriasin was effective at a concentration of 50 μM (FIG. 9A). In RPMI, psoriasin was effective in concentrations below 1 μM (FIG. 9B).
# [2] = system: microbial growth in bread/rolls; test: Microbial growth in baked bread/rolls stored at room temperature; type: cell-based; conditions: 0.3% psoriasin admixed with dough before baking, after 10 days at room temperature
# Method: Bread or roll dough prepared with 150 ml PBS, 0.3% psoriasin, (1.5 g protein in 150 ml DDW) or 0.3% calcium propionate (1.5 g calcium propionate in 150 ml DDW) was baked in a bread maker according to the manufacturer protocol using the following recipe: 180 ml water (or 150 ml PBS+30 ml water), 1 teaspoon of salt, 2 spoons of sugar, 2 spoons of oil, 300 g of flour, and 1 teaspoon of yeast. Following baking, the bread was sliced, each slice/roll was weighed and kept in a separate small smasher bag until analysis.
# Bread/rolls were stored at room temperature. Each day, a roll/slice of bread from each group was mixed with autoclaved 1×PBS at a weight ratio of 1:10 to the weighted piece of bread in the bag. The bread was then smashed in a smasher at normal speed for 120 seconds. 10 mL from the smashed bread was removed, vortexed, and diluted with autoclaved 1×PBS as necessary. Samples were plated on both PDA and LB plates and incubated at 30° C. and 37° C., respectively. All samples were performed in duplicate.
# [3] = system: initial microbial load of plant-based meat substitute; test: Microbial load of plant-based meat substitute during storage; type: cell-based
# Method: The ability of psoriasin to extend the shelf life of a plant-based meat substitute was examined under standard storage conditions. Three groups, each stored as an open package at […], were assessed over the course of 16 days. The groups included i) an untreated control, ii) a nisin-treated sample, and iii) a psoriasin-treated sample at 0.65%. A single source of the plant-based meat substitute was used and each group was reproduced in triplicate. The microbial load of the plant-based meat substitute samples was based on the initial microbial load without the addition of antibiotics and without the addition of mold, yeast or bacteria. Samples from each group were taken on days 1, 3, 5, 10, 11 and 16 and total CFU count was determined by plating on LB and PDA agar petri dishes.
# [4] = system: microbial load of hummus salad; test: Shelf life of hummus salad at pH 4.8; type: cell-based; conditions: pH 4.8, stored at 6° C, psoriasin 0.2%
# Method: The ability of psoriasin to extend the shelf life of a hummus salad preparation was examined. A commercially-available preparation that is acidified at pH 4.8 and to which 0.2% potassium sorbate was added in order to ensure food safety was compared to a hummus salad at the same pH with and without the addition of psoriasin at the same concentration. No antibiotics were added and there was no addition of mold, yeast or bacteria to the preparation.
# Samples were stored at 6° C. and total CFU counts were performed on days 0, 12, 26, and 62 by plating on LB and PDA agar petri dishes. Photos (i.e., visual inspection) were taken every 7 days. As is evident from FIG. 14A, psoriasin extended the shelf life of the hummus salad at pH 4.8 by 2 months.
# [5] = system: microbial load of hummus spread; test: Shelf life of canned hummus spread at natural pH 6.5; type: cell-based; conditions: pH 6.5, stored at 6° C in an open container
# Method: In a further related example, the ability of psoriasin to extend the shelf life of a canned hummus spread preparation was compared with that of nisin, a commonly used preservative at pH 6.5, the natural pH of the preparation. As described above, no antibiotics were added and there was no addition of mold, yeast or bacteria to the hummus spread. The hummus spread was split into 3 groups: i) untreated, ii) nisin-treated, and iii) psoriasin-treated. The hummus spread was stored at 6° C. in an open container. Total CFU count was determined by plating on LB and PDA agar petri dishes.
# Candida albicans = test: Microbial Growth Inhibition Test, broth microdilution optical method; type: cell-based; conditions: RPMI-MOPS
# Method: (§1) The IC90 of psoriasin for several microorganisms was determined by Microbial Growth Inhibition Tests. The tests were performed using the Broth Microdilution Optical Method based on standardized protocols M27 (yeasts) and M38 (filamentous fungi) of the Clinical and Laboratory Standards Institute. […] MOPS, LB (Luria-Bertani), and TSB ([…]) medium types were used, depending on the species being tested. The absorbance was calibrated to each species, and was measured between 450 nm to 650 nm.
# Enterobacter cloacae = test: as above; type: cell-based; conditions: TSB
# Method: as §1
# Escherichia coli = test: as above; type: cell-based; conditions: LB, TSB
# Method: as §1
# Lactobacillus saeki = test: as above; type: cell-based; conditions: TSB
# Method: as §1
# Lactococcus lactis = test: as above; type: cell-based; conditions: TSB
# Method: as §1
# Listeria monocytogenes = test: as above; type: cell-based; conditions: LB, TSB
# Method: as §1
# C. albicans = test: Anti-fungal activity after lyophilization or oven drying; type: cell-based, Candida albicans
# Method: The activity of psoriasin was assessed following lyophilization and oven drying. […] In particular, psoriasin was lyophilized and then tested for antimicrobial activity against C. albicans at concentrations of 0.5, 0.25, and 0.125 μM compared with psoriasin that had not been lyophilized.
# In another experiment, psoriasin was oven-dried at 50° C. for 24 hours. Subsequently, psoriasin was tested for antimicrobial activity against C. albicans at concentrations of 0.5, 0.25, 0.125, 0.0625 μM compared with psoriasin that was not dried.
molecule,measurement,setting,value
B1,effective concentration against isolated microbes,"[1]; RPMI 1640, 37° C",below 1 μM
same,effective concentration against isolated microbes,"[1]; rich LB medium, 37° C",50 µM
same,microbial growth in rolls,[2],no microbial growth was detected
same,increase of shelf life of plant-based meat substitute,[3],3 Fold
same,Yeast & Mold Count,[3]; Day 1,2 × 10^2
same,Total CFU count,"[3]; Day 1, open package, psoriasin 0.65%",1.2 × 10^4 CFU
same,Total CFU count,[3]; Day 3,1.2 × 10^4 CFU
same,Yeast & Mold Count,[3]; Day 3,2 × 10^2
same,Total CFU count,[3]; Day 5,1.2 × 10^4 CFU
same,Yeast & Mold Count,[3]; Day 5,2 × 10^2
same,Total CFU count,[3]; Day 10,6.65 × 10^5 CFU
same,Yeast & Mold Count,[3]; Day 10,2 × 10^2
same,Total CFU count,[3]; Day 11,6.5 × 10^5 CFU
same,Yeast & Mold Count,[3]; Day 11,2 × 10^2
same,Total CFU count,[3]; Day 16,2.4 × 10^6 CFU
same,Yeast & Mold Count,[3]; Day 16,1 × 10^3
same,"less microbial load than the other two groups (untreated, nisin)",[3]; psoriasin 0.65%,4 logs
same,extension of shelf life of hummus salad,[4],2 months
same,time without microbial growth in hummus spread,[5],over 32 days
same,IC90,Candida albicans,0.5 µM
same,IC90,Enterobacter cloacae,28 µM
same,IC90,Escherichia coli,100 µM
same,IC90,Lactobacillus saeki,50 µM
same,IC90,Lactococcus lactis,45 µM
same,IC90,Listeria monocytogenes,75 µM
same,activity against C. albicans after lyophilization vs not lyophilized,"C. albicans; 0.5, 0.25 and 0.125 μM",showed the same activity
same,activity against C. albicans after oven drying vs not dried,"C. albicans; oven-dried at 50° C for 24 hours, 0.5, 0.25, 0.125, 0.0625 μM",showed the same activity
